Laboratory results from the DeepSol protein solubility set.

Assay: soluble on expression in E. coli; label from the status in PepcDB or PDB records

Sequence | soluble on expression in E. coli
MSLRPTPAPSFSGVTVDGKPFSSASLKGKAYIVNFFATWCPPCRSEIPDMVQVQKTWASRGFTFVGIAVNEQLPNVKNYMKTQGIIYPVMMATPELIRAFNGYIDGGITGIPTSFVIDASGNVSGVIVGPRSKADFDRIVKMALGAKAATKKGIITITTDPNSSSVDKLAAALEHHHHHH | soluble
TFGKDNIKSKVILFSIEKPSKEVAEKLEMQDDYIYRIIRMREVGHKAYSIEHTYMPLAIIPGLEPHHLEDSIYNYIRDDLKLKMQSAHVWVRGDKSNQEDSKLLDLEEPTFMMEIEKLAHLEDGRVFEYSITRHTYESFV | not soluble
STTGIIMENVTAFWEEGFGELLEKVQQSNGDRKHSSDENNVSFSHLCLVGNPVLKNINLNIEKGEMLAITGSTGSGKTSLLMLILGELEASEGIIKHSGRVSFCSQFSWIMPGTIKENIIFGVSYDEYRYKSVVKACQLQQDITKFAEQDNTVLGEGGVTLSGGQRARISLARAVYKDADLYLLDSPFGYLDVFTEEQVFESCVCKLMANKTRILVTSKMEHLRKADKILILHQGSSYFYGTFSELQSLRPDFSSKLMGYDTFDQFTEERRSSILTETLRRFSVDDSSAPWSKPKQSFRQTGEVGEKRKNSILNSFSSVRKISIVQKTPLCIDGESDDLQEKRLSLVPDSEQGEAALPRSNMIATGPTFPGRRRQSVLDLMTFTPNSGSSNLQRTRTSIRKISLVPQISLNEVDVYSRRLSQDSTLNITEEINEEDLKECFLDDVIKIPPVTTWNTYLRYFTLHKG | soluble
MSLKTVFKPTLLAVLVAASAPVLAHSLIADTKAPSPTTKAFAAEQRNTLPFADQEDFKLVEKGLIAQQKDLEIKDANGKVVWELGNYRFLLDGLDYDSIHPSLQRQAQLNMHHGLYKVTDRIYQVRGYDLANITFVKGDTGWIVFDPLTVPATAKAALDFVNQELGERPVKAVVYSHAHADHFGGVKGIVSQEQVDRGEVPIIAPKGFLNHAVAENVLAGNAMSRRTTYQYGNVLPKGATGQVDAAIGKNVAQGEVSLIAPTKVISEQTETVVIDGVTMEFQNTPGTESPAEMNTYFPQFKALWMAENTVGGLHNVYTLRGAEVRDAKAWSKYINESIHMYAKEADVMFASHTWPRWGNDNINHFLRKQRDMYGYIHDQALRLANHGVTINEIQDEFHVPDVLAHEWYNRGYHGSYHRNAKAVINKYLGYFDMNPATLRPLAPTDAAPKYVAAMGGMDNVIKLGKEAFDKGEFRWCAEIVDKAVFAEPSNKQARYLQADCLEQLGYQSESAGERNTYLMGAYELRNGVPKVSATKTAGADTVVAMDTELFLDYLGVRLNGDKAAGIDYTINFVLPDVNEKFLVELENAHLNNLKGIQSENPDMTLTLNRAQLNQVLMGKTTIQQLAKEGKAKIEGNAQALTDIAGMLDNFEFWFNIIEPKTKEGGSHHHHHH | soluble
MDRLIRSLLMNQNKQATDKLDHPDTSETVNISSLALLKMLRHARSGIPLEVMGLMLGDFVDDYTINVTDVFAMPQSGTSVTVESVDPVYQTKHMDLLKLVGRTENVVGWYHSHPGFGCWLSSVDVNTQQSFEALHPRAVAVVVDPIQSVKGKVMLDAFRSVNPLNLQIRPLAPTAEPRQTTSNLGHLTKPSLISVVHGLGTKYYSLNVAYRMGSNEQKMLMCLNKKSWYDQLNMSTYSELEKKQEEKFKSINKLIAVFNKDIDEVKEKPIADKKGKTQEEVKKFGKINAKQQLQMITSSLLNDSLCHQLTAMINAKSMT | not soluble
MGSDKIHHHHHHMRILLSVSRFEDELIEILDRLDETYEIFADNDCFEILKDRIPRIRPFERDDFDLLYLNWRDLPSEKREEKILSTIDENRTLLFLKAIKNYREKLVVTTLEDLKLTFSEIERAGDVSLQTRRYLLLKGLAHFLKVHSEVLESLSDLFFIKDWKAIVLERLQEGIKAPVSLLPVSIPPELVEDIGLASHLIRFLPQKACVLVKNGKIVYASSTGDLPEIEGGVFALKGVFRGEKKFDFILAEDFEGDVEGLRIKDLLHQEEGLVLLGASGYLREPVPTNDFTEVLSMHPVFDSCAVTKEGKLVLHVVELNRSDVINALEKIDLSGTEVAFNFPISDEEKAELKQKGVKKVSWIDSRRIWRRC | not soluble
MSLKRAIIIGATSGIGKEVAQRLLSEGWQIGIAGRRQSALEEFRQIAPEQIKIQSLDVTQEYSAGKLDALIHQLGGMDLFLLSSGIGFQNMELNMEIELNTARTNVEGFTRMVDTAFSYFRNNGGGHLAVISSIAGTKGLGVAPAYSATKRFQNTYIDALEQLSHLQKLDIHFTDIRPGFVATDLLNDGKHYPMLMKTDQVGRDIVRALHRKEGHHHHHH | not soluble
LQMLTLEEWAAEKYRSNPPSVSTLRRYAKQNLFCPPAMKQGRLWRVREDAELVGELVTPVIKKNDSLLLQRILSNGSQTA | not soluble
EIEEIKITMDVLVASEDVMVTVTKEGYVKRTSLRSYAASNGELPGMKEGDYLLGRYEMNTQDTLLLFTKKGNYLYLPVHQLPDIRWKDNGQHVANLVTVDKDDDILTTLAVKEFSEE | soluble
LSLLLEVSGNPKAGNVDREHDFDDLKFEHFLASAAGAFPAFLEVAEKRIIGEGVLRAVKESMRWHRAENVHFGAFLLLVPLISSWDAGGMVDIAEAARNRLRRTDFRDSLSVLEAFRLSNARVVEAGELNLKDRKTEEEIAQKKINLYEWMKMAPEENLIARELVDGFKISIEGAKFLLSFGNSGKAVVELYYHLLSKFPDPLVIAKMGREYAEKITEWAEKARTEEERKELDEKLLKDGANPGTIADLTASSI | not soluble
GSHMVEMRMKKCPKCGLYTLKEICPKCGEKTVIPKPPKFSLEDRWGKYRRMLKRALKNKNKAE | soluble
SNAMNDIILKSLSTLITEQRNPNSVDIDRQSTLEIVRLMNEEDKLVPLAIESCLPQISLAVEQIVQAFQQGGRLIYIGAGTSGRLGVLDASECPPTFGVSTEMVKGIIAGGECAIRHPVEGAEDNTKAVLNDLQSIHFSKNDVLVGIAASGRTPYVIAGLQYAKSLGALTISIASNPKSEMAEIADIAIETIVGPEILTGSSRLKSGTAQKMVLNMLTTASMILLGKCYENLMVDVQASNEKLKARAVRIVMQATDCNKTLAEQTLLEADQNAKLAIMMILSTLSKSEAKVLLERHQGKLRNALSK | soluble
MRLTIPILKEGGMLMKFGFIGAGKVGFSLGKYLADNNQNVVGYYSIINEEAIEAAKFTGSKYYENMEQLVEDSEVLFLTVPDGQIENLWNQLKSSHKNWMAKYNKPLLNNKIVCHCSGALSSDIFSSIAEYESFGYSIHPLFAVSNRYESYKELSDSYFTIEGNIEKINKMKELFESFGNTVCIISKDDKIKYHGAAAIASNLVVGLIGLSEELLKQCGFDEKSAHNALAPIIKGNVKHIVEEGVVEALTGPIERCDVSTVRKHMSVFDKKTNEIYKAVSKEVLEIAKIKNKDRDYSKMEEVLQ | not soluble
MSLTMNSEDKFKILQIADLHFSTGYGKCLDPQPPSSAKGCKADSRTLEFINKVLDLEKPDMVVLTGDQIFGDASPDLESSAFKALNPFVERKIPFAITVGNHDDEGSLKREEIMGLYADMPYSVAAMGPASIDGFGNYVVTVQGKSSKATALSLYFVDSHAYSKTPKVTPGYDWIKENQLIYLKQEAESIQNSVEKYRKSNKIPLAMAFFHIPLPEFRNLNQPFIGENREGVTAPRYNSGARQVLSEIGVSVASVGHDHCNDYCLQDTQQSLSPGDNKMWLCFGGGAGLGGYGGYNGYIRRMRVYELDTSKGEIKTWKRTEDNPGNIIDEQVLVSNGDVVNEGHHHHHH | soluble
MAHHHHHHMVFHLNIFNKGKRQNLVSAYLNHFKKSYFSGVTSGSDCVNKSEVSSDNNNNNNNNNNKIAHNFFSKKYQRNFENNNLSENQENNKNIIYSGSNIFKNIYNTEMMSNNNTVDVNMMDNNPAARLEELRTIMKKNKIDVYILINSDEHNSEIINEKDKKIVKITNYSGADGILIVTKDKPILYVNALYELQAMNELDQNLFTLRISRIDNRDEIFETISSLEFNTIAFDGKNTSVVFYEKLRKALLNAYPKKKIVEKIIYNNNFDDVNKKDDENVLNFLVLEKSLVEIKDYPVNNKTLYIHDRKYNGACAGEKIDKLKQSLMYDIKNVDNLLLSELDEIAYLLNLRGYDYQYSPLFYSYLLFQFDREEQDFSKIVFFTTVKNLPADVKNLLEINKVIVKEYEEIVPYLRDVVIPSIPKHNDDNPDFKKYDISLSPYINLMIYKLFDRKNVLLQNSPVVKMKAVKNDVEIDNMKQAHILDGLALLQFFHWCEQKRKTKELFNETEMSLRHKVDYFRSTKKNFIFPSFSTISASGPNAAVIHYECTDKTNATIKPAIYLLDSGGQYLHGTTDVTRTTHFGEPTAEEKRIYTLVLKGHLRLRKVIFASYTNSSALDFIARENLFNNFMDYNHGTGHGVGLTLNVHEGGCSIGPVGGAPLKKNMVLSNEPGYYMKDKFGVRIENMQYVISKEITDTTEYLSFDDLTMYPYEK | not soluble
VAEEATGDWGQIFTAFNELSQTLAEYEEERVKHRNELQQERDRFRRLFQSIPEPAVVVEYTGNKTLIHNVNEAFEETFGYEASNAVGGDINDFIVPDGSLEEAESIDQLSSSGKQVTHEVRREAADGKRDFLLRSTPAVDGE | not soluble
MASIVFSTIGNPKGYQKVTYEIDGEKFESNVSVLALRDLLKVDKTVVILGISVADVYNCKYADYRSCKECIIQNSKNDLGISESYVVAPNVYQKFKGKPDHYFTYIYYHSLRILEKEGINEVFIDTTHGINYMGVLAKEAIQLAVSAYAAKSEKEVKVSLYNSDPVGKDVSDTVKLHEIEAIKISPLSGLKYVTYQILNKDKNFFNKIFSDSVNAIPRFATALDNGLFIYLSEKDSSLHLKRLEDDLSKDPLLTPSENEINVVYKDMKYALSHALFYVISRFSGNVDLDTLRHYAETYADKVTRAIIENEVDKIEKYQMGSERKLLGEYMKVEGKGFDKRILYAHGGLPYAGTYVYKEKDKVYVTYGDKIDEIERQI | soluble
GEFPLQTKTDIHAVLASNGRIIYISANSKLHLGYLQGEMIGSFLKTFLHEEDQFLVESYFYNEHHLMPCTFRFIKKDHTIVWVEAAVEIVTTRAERTEREIILKMKVLEEE | soluble
MSLAPQRCHRFQSSAYRSNQWRYRGRCDSIQFAVDRRVFIAGLGLYGSSSGKAEYSVKIELKRLGVVLAQNLTKFMSDGSSNTFPVWFEHPVQVEQDTFYTASAVLDGSELSYFGQEGMTEVQCGKVAFQFQCSSDSTNGTGVQGGQIPELIFYAEGHHHHHH | soluble
MGSDKIHHHHHHMTKKKIGIGFGTWAWGNKLVWDYKAETDDILLKKTFFDAINGGLDLIDSADSYGTGSLFGQSEKLIGDFLEELPKRKLKKVTIATKLAPFPWRIGRNGLDNAFQESNQRLKGNMTRVQLHWSTYRYAPWQEEQLLNGLGDLYEEGLIKEIGLSNTGPKRLNFLFQKLKKRGIKIKSIQMQLSLLTKPSLEDENIKIICDENEIEYLAYSPLGLGILTVPPNQSPKPTTFLRKSLYQRILPKTIELRTLLTHIGKKYSASQAEVALNWVRSHGAKPIVGIRNPNQAKDAISALNWSLTKSEKQKLDFCRNACLANMPLNPFTSP | not soluble
AHHHHHHGSRTNAFEAVARYVYPSLRRRLVEILRERGLTQIQIAELLHITQSAVSRYLRMNRGALIEVEKFQDIDEKLKGLADTIVREKPDEYYIHGELVKIAVEMLGKGYVCSFHSKVDPEIDPKLCRICIETFG | not soluble
MGSDKIHHHHHHMDAILMSLMTALNEHLLINVYQRDTDDFYTGYVQVLGHDAVVLGTYNDSGIADGCALIAFSAIDQVEFAGDDLDSMNFRINLAQAQHFLTLQGQEKPLQFDATQNLIQQLATQAKANGQMVMVVVADDDAYLEGQVTAVAEDRFSMAIFNKFNYTDVRALQVDFSDILVMEFHGLDLKLETELVWQRDHLKHVATKLYQNDGQLAGVFQNALANNRLISVVPKGPEDQFFVGRVKAVNDRVVVLSLKDMAGQFGGYILLTLPSIQNVATASDYLQTISFYEKWDQTHHFSQQPVLNADREFDPNDDLIRTIISEAAGFERVVRIKVADSDEHFLGYPENVGETDFDLNLVGPDDGETAQIRYGQIREIAFGHIFAYLQEAQLKNAGR | not soluble
